In the supplement of paper PMC7877785:
± gives the uncertainty stated by the source.

Assay: self-splicing fitness, log relative to wild type (ln ratio); higher = more splicing; Tetrahymena group I intron in knt gene, E. coli kanamycin selection, DiMSum; sequences stand for … in CUCUCU…GGAGGGAAAAGUUAUCAGGCAUGCACCUGGUAGCUAGUCUUUAAACCAAUAGAUUGCAUCGGUUUAAAAGGCAAGACCGUCAAAUUGCGGGAAAGGGGUCAACAGCCGUUCAGUACCAAGUCUCAGGGGAAACUUUGAGAUGGCCUUGCAAAGGGUAUGGUAAUAAGCUGACGGACAUGGUCCUAACCACGCAGCCAAGUCCUAAGUCAACAGAUCUUCUGUUGAUAUGGAUGCAGUUCACAGACUAAAUGUCGGUCGGGGAAGAUGUAUUCUUCUCAUAAGAUAUAGUCGGACCUCUCCUUAAUGGGAGCUAGCGGAUGAAGUGAUGCAACACUGGAGCCGCUGGGAACUAAUUUGUAUGCGAAAGUAUAUUGAUUAGUUUUGGAGUACUCGUGGUCG
In short: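 Six replicate transformations of E. coli BL21(DE3) with a pET-22b(+) library were grown overnight at 37°C or 30°C. The library randomised all eight P1ex-region intron nucleotides, the intron lying in the knt kanamycin-resistance gene, and plates were LB agar with or without 25 μg/mL kanamycin plus 100 μg/mL carbenicillin, 50 μM IPTG and 0.2% rhamnose. Pooled colonies were amplicon-sequenced on an Illumina HiSeq 2500, and fitness is the DiMSum error-weighted combination of wild-type-normalised replicate fold changes, kanamycin versus none.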

| Sequence | self-splicing fitness (ln) (37 °C) | self-splicing fitness (ln) (30 °C) |
| --- | --- | --- |
| UUGGAGCAAUAUUACGGGCU | -2.95 ± 0.34 |  |
| UUGGAGCAAUAUUACGGUAA | -1.01 ± 0.27 | -1.27 ± 0.26 |
| UUGGAGCAAUAUUACGGUUU | -2.9 ± 0.47 | -3.38 ± 0.31 |
| UUGGAGCAAUAUUACGUAGA | -1.77 ± 0.18 | -3.22 ± 0.27 |
| UUGGAGCAAUAUUACGUAGG | -1.86 ± 0.15 | -3.11 ± 0.23 |
| UUGGAGCAAUAUUACGUAUA |  | -2.08 ± 0.44 |
| UUGGAGCAAUAUUACGUGAG | -1.54 ± 0.2 | -1.84 ± 0.13 |
| UUGGAGCAAUAUUACGUUAC | -2.25 ± 0.24 | -3.66 ± 0.33 |
| UUGGAGCAAUAUUACGUUUA |  | -2.44 ± 0.44 |
| UUGUAGCAAUAUUACGAAAG | -2.69 ± 0.34 | -2.43 ± 0.32 |
| UUGUAGCAAUAUUACGAAUG | -1.93 ± 0.29 | -3.32 ± 0.41 |
| UUGUAGCAAUAUUACGACCG | -0.156 ± 0.26 | -0.716 ± 0.36 |
| UUGUAGCAAUAUUACGACGA | -0.0034 ± 0.36 | -1.08 ± 0.26 |
| UUGUAGCAAUAUUACGACUU | 0.769 ± 0.36 | -0.894 ± 0.3 |
| UUGUAGCAAUAUUACGAGUC | -2.67 ± 0.32 | -3.94 ± 0.42 |
| UUGUAGCAAUAUUACGAUUA | -0.211 ± 0.1 | -0.945 ± 0.11 |
| UUGUAGCAAUAUUACGCAGA | -0.763 ± 0.28 | -2.2 ± 0.35 |
| UUGUAGCAAUAUUACGCCGC | -2.68 ± 0.4 |  |
| UUGUAGCAAUAUUACGCCUA | 0.0606 ± 0.13 | -0.297 ± 0.12 |
| UUGUAGCAAUAUUACGCCUC |  | -2.07 ± 0.48 |
| UUGUAGCAAUAUUACGCCUU | 0.0387 ± 0.17 | -0.585 ± 0.17 |
| UUGUAGCAAUAUUACGCUUG | -0.277 ± 0.13 | -0.622 ± 0.12 |
| UUGUAGCAAUAUUACGCUUU | -2.81 ± 0.31 |  |
| UUGUAGCAAUAUUACGGAGA | -2.21 ± 0.42 |  |
| UUGUAGCAAUAUUACGGAUC | -2.48 ± 0.26 | -3.53 ± 0.3 |
| UUGUAGCAAUAUUACGGCCU | -0.408 ± 0.25 | -0.844 ± 0.2 |
| UUGUAGCAAUAUUACGGGCC | -1.69 ± 0.38 |  |

| Sequence | self-splicing fitness (ln) (37 °C) | self-splicing fitness (ln) (30 °C) |
| --- | --- | --- |
| UUGUAGCAAUAUUACGGUGU | -2.3 ± 0.26 | -2.41 ± 0.42 |
| UUGUAGCAAUAUUACGGUUA | -0.784 ± 0.13 | -1.41 ± 0.14 |
| UUGUAGCAAUAUUACGUAGC | -2.87 ± 0.25 | -3.44 ± 0.31 |
| UUGUAGCAAUAUUACGUCAG | -0.45 ± 0.19 | -1.12 ± 0.22 |
| UUGUAGCAAUAUUACGUGCA | -1.14 ± 0.18 | -2.4 ± 0.15 |
| UUGUAGCAAUAUUACGUGUC |  | -3.17 ± 0.15 |
| UUUAAGCAAUAUUACGAAUC | -1.04 ± 0.25 | -2.96 ± 0.28 |
| UUUAAGCAAUAUUACGAGCA | -0.686 ± 0.22 | -1.38 ± 0.21 |
| UUUAAGCAAUAUUACGAGCU | -0.0484 ± 0.17 | -2.94 ± 0.22 |
| UUUAAGCAAUAUUACGCACA | 0.181 ± 0.086 | -0.157 ± 0.068 |
| UUUAAGCAAUAUUACGCCAU | -2.36 ± 0.29 |  |
| UUUAAGCAAUAUUACGCCGU | -1.84 ± 0.27 | -1.49 ± 0.41 |
| UUUAAGCAAUAUUACGCUAG | -0.671 ± 0.2 | -1.54 ± 0.15 |
| UUUAAGCAAUAUUACGCUGA | -0.978 ± 0.15 | -2.47 ± 0.2 |
| UUUAAGCAAUAUUACGCUUC |  | -2.24 ± 0.35 |
| UUUAAGCAAUAUUACGGAAU | -2.36 ± 0.33 | -3.63 ± 0.26 |
| UUUAAGCAAUAUUACGGCCG | -0.0514 ± 0.26 | -0.19 ± 0.21 |
| UUUAAGCAAUAUUACGGCGC | -0.784 ± 0.23 | -1.15 ± 0.17 |
| UUUAAGCAAUAUUACGGCUU | -1.86 ± 0.27 | -1.8 ± 0.14 |
| UUUAAGCAAUAUUACGGGAC | -2 ± 0.42 | -1.77 ± 0.16 |
| UUUAAGCAAUAUUACGGGCU | -2.18 ± 0.3 | -2.91 ± 0.3 |
| UUUAAGCAAUAUUACGGUGA | -0.554 ± 0.12 | -1.11 ± 0.11 |
| UUUAAGCAAUAUUACGGUGU | -2.3 ± 0.35 | -3.85 ± 0.28 |
| UUUAAGCAAUAUUACGUAAU | -1.74 ± 0.12 | -2.15 ± 0.11 |
| UUUAAGCAAUAUUACGUACA | 0.0487 ± 0.14 | -0.498 ± 0.12 |
| UUUAAGCAAUAUUACGUCAG | -0.571 ± 0.12 | -0.728 ± 0.12 |
| UUUAAGCAAUAUUACGUGAC | -2.11 ± 0.21 | -3.33 ± 0.21 |

| Sequence | self-splicing fitness (ln) (37 °C) | self-splicing fitness (ln) (30 °C) |
| --- | --- | --- |
| UUUAAGCAAUAUUACGUGAU | -1.67 ± 0.21 | -2.59 ± 0.15 |
| UUUAAGCAAUAUUACGUGGG | -2.1 ± 0.17 | -2.92 ± 0.13 |
| UUUAAGCAAUAUUACGUUUC | -3.19 ± 0.4 | -3.96 ± 0.35 |
| UUUAAGCAAUAUUACGUUUU | -1.22 ± 0.16 | -3.93 ± 0.2 |
| UUUCAGCAAUAUUACGAAAC | -2.53 ± 0.3 |  |
| UUUCAGCAAUAUUACGAGCA | -0.671 ± 0.12 | -1.41 ± 0.14 |
| UUUCAGCAAUAUUACGAUCA | 0.086 ± 0.14 | 0.131 ± 0.14 |
| UUUCAGCAAUAUUACGAUGU | -1.47 ± 0.15 | -2.13 ± 0.13 |
| UUUCAGCAAUAUUACGCAAA | -0.378 ± 0.13 | -2.1 ± 0.15 |
| UUUCAGCAAUAUUACGCAGU | -1.59 ± 0.17 | -4.25 ± 0.31 |
| UUUCAGCAAUAUUACGCGAC |  | -2.9 ± 0.37 |
| UUUCAGCAAUAUUACGCUAA | -0.815 ± 0.17 | -1.25 ± 0.18 |
| UUUCAGCAAUAUUACGCUUU | -1.52 ± 0.13 | -2.69 ± 0.14 |
| UUUCAGCAAUAUUACGGAAC |  | -1.24 ± 0.22 |
| UUUCAGCAAUAUUACGGACU | -0.184 ± 0.11 | -0.982 ± 0.13 |
| UUUCAGCAAUAUUACGGAGA | -1.13 ± 0.22 | -1.26 ± 0.14 |
| UUUCAGCAAUAUUACGGAUG | 0.256 ± 0.096 | -0.64 ± 0.064 |
| UUUCAGCAAUAUUACGGGAA | -1.93 ± 0.21 | -1.96 ± 0.2 |
| UUUCAGCAAUAUUACGGGGC | -3.35 ± 0.31 | -2.91 ± 0.18 |
| UUUCAGCAAUAUUACGGGGU | -1.68 ± 0.15 | -3.58 ± 0.17 |
| UUUCAGCAAUAUUACGGUAG | -0.526 ± 0.12 | -0.521 ± 0.088 |
| UUUCAGCAAUAUUACGUAAU | -1.58 ± 0.16 | -2.89 ± 0.14 |
| UUUCAGCAAUAUUACGUAGG | -0.741 ± 0.11 | -0.515 ± 0.068 |
| UUUCAGCAAUAUUACGUCAU | -2.47 ± 0.35 | -3.32 ± 0.24 |
| UUUCAGCAAUAUUACGUGAA | -0.17 ± 0.088 | -0.761 ± 0.061 |
| UUUCAGCAAUAUUACGUGGU | -3.02 ± 0.21 | -3.84 ± 0.2 |
